According to patent US12735488 (dated 2026):

What was measured:
hVISTA-ECD [1] = biological target: hVISTA-ECD (human); assay: SPR pH 6.0, 37C
hVISTA-ECD [2] = biological target: hVISTA-ECD (human); assay: SPR pH 6.9
hVISTA-ECD [3] = biological target: hVISTA-ECD (human); assay: SPR pH 7.4, 37C
hVISTA-ECD [4] = biological target: hVISTA-ECD (human); assay: SPR pH 6.45, 37C
hVISTA-ECD [5] = biological target: hVISTA-ECD (human); assay: SPR pH 6.45
hVISTA-ECD [6] = biological target: hVISTA-ECD (human); assay: SPR pH 7.4, low or no binding
hVISTA-ECD [7] = biological target: hVISTA-ECD (human); assay: SPR pH 6.0, 37C; remark: listed apart in the source
hVISTA-ECD [8] = biological target: hVISTA-ECD (human); assay: SPR pH 6.9, 37C
hVISTA-ECD [9] = biological target: hVISTA-ECD (human); assay: SPR pH 6.0
hVISTA-ECD [10] = biological target: hVISTA-ECD (human); assay: SPR pH 6.0, 37C; remark: listed apart in the source
hVISTA-ECD [11] = biological target: hVISTA-ECD (human); assay: SPR pH 7.4, 37C; remark: listed apart in the source
hVISTA-ECD [12] = biological target: hVISTA-ECD (human); assay: SPR pH 6.45, low or no binding
hVISTA-ECD [13] = biological target: hVISTA-ECD (human); assay: SPR pH 7.4, 37C; remark: listed apart in the source
hVISTA-ECD [14] = biological target: hVISTA-ECD (human); assay: SPR pH 6.9, low or no binding
hVISTA-ECD [15] = biological target: hVISTA-ECD (human); assay: SPR pH 7.4, 37C; remark: listed apart in the source
hVISTA-ECD [16] = biological target: hVISTA-ECD (human); assay: SPR pH 6.0, 37C; remark: listed apart in the source

Sequence of hVISTA-ECD (human) (chain, as listed by the source): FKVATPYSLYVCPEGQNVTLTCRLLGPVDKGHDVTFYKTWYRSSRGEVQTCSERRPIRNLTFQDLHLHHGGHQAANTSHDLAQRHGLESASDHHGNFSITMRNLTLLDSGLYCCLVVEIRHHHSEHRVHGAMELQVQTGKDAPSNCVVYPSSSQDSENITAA

B1: P1-068767 (antibody, V domains shown)
VH: EVQLVESGGGLVQPGKSLRLSCAASGFTLEDYAMHWVRQAPGKGLEWVSGIDWNSENIGYADSVKGRFTISRDNAKNSLYLQMNSLRTEDTALYYCAKVPGYSGGWIDAEDDWGQGTMVTVSS
VL: not shown
- Kd (hVISTA-ECD [1]): 3.4 nM
- Kd (hVISTA-ECD [2]): 385 nM
- Kd (hVISTA-ECD [3]): 19 µM
- Kd (hVISTA-ECD [4]): 38 nM
- Kd (hVISTA-ECD [5]): 31.8 nM
- binding result (hVISTA-ECD [6]): no binding
- Kd (hVISTA-ECD [7]): 7.8 nM
- Kd (hVISTA-ECD [8]): 400 nM
- Kd (hVISTA-ECD [9]): 6.78 nM
- Kd (hVISTA-ECD [10]): 7.6 nM
- Kd (hVISTA-ECD [11]): 19 µM

B2: P1-068765 (antibody, V domains shown)
VH: EVQLVESGGGLVQPGKSLRLSCAASGFTDEDYAMHWVRQAPGKGLEWVSGINWNSEEIGYADSVKGRFTISRDNAKNSLYLQMNSLRTEDTALYYCAKVPGYSGGWIDAEDDWGQGTMVTVSS
VL: not shown
- binding result (hVISTA-ECD [6]): no binding

B3: P1-068759 (antibody, V domains shown)
VH: EVQLVESGGGLVQPGKSLRLSCAASGFTLEDEAMHWVRQAPGKGLEWVSGIDWNSENIGYADSVKGRFTISRDNAKNSLYLQMNSLRTEDTALYYCAKVPGYSGGWIDAEDDWGQGTMVTVSS
VL: not shown
- binding result (hVISTA-ECD [12]): no binding

B4: P1-061029 hIgG1f afucosylated (antibody, V domains shown)
VH: EVQLVESGGGLVQPGKSLRLSCAASGFTLDDYAMHWVRQAPGKGLEWVSGINWNSANIGYADSVKGRFTISRDNAKNSLYLQMNSLRTEDTALYYCAKVPGYSGGWIDAFDVWGQGTMVTVSS
VL: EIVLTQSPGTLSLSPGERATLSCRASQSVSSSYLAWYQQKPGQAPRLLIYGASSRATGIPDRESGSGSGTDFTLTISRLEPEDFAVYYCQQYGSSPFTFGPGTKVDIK
- Kd (hVISTA-ECD [7]): 6.9 nM
- Kd (hVISTA-ECD [11]): 0.041 µM

B5: P1-068761 (antibody, V domains shown)
VH: EVQLVESGGGLVQPGKSLRLSCAASGFTLEDEAMHWVRQAPGKGLEWVSGINWNSEEIGYADSVKGRFTISRDNAKNSLYLQMNSLRTEDTALYYCAKVPGYSHGWIDAEDVWGQGTMVTVSS
VL: not shown
- binding result (hVISTA-ECD [6]): no binding

B6: P1-070878 (P1-068761_E55A_E56N) (antibody, V domains shown)
VH: EVQLVESGGGLVQPGKSLRLSCAASGFTLEDEAMHWVRQAPGKGLEWVSGINWNSANIGYADSVKGRFTISRDNAKNSLYLQMNSLRTEDTALYYCAKVPGYSHGWIDAEDVWGQGTMVTVSS
VL: not shown
- binding result (hVISTA-ECD [6]): no binding

B7: P1-068769 (antibody, V domains shown)
VH: EVQLVESGGGLVQPGKSLRLSCAASGFTLEDEAMHWVRQAPGKGLEWVSGINWNSDHIGYADSVKGRFTISRDNAKNSLYLQMNSLRTEDTALYYCAKVPGYSGGWIDAEDDWGQGTMVTVSS
VL: not shown
- binding result (hVISTA-ECD [13]): no binding

B8: P1-068771 (antibody, V domains shown)
VH: EVQLVESGGGLVQPGKSLRLSCAASGFTLEDEAMHWVRQAPGKGLEWVSGINWNSHEIGYADSVKGRFTISRDNAKNSLYLQMNSLRTEDTALYYCAKVPGYSGGWIDAEDDWGQGTMVTVSS
VL: not shown
- binding result (hVISTA-ECD [13]): no binding

B9: P1-068761 hIgG1f afucosylated (antibody, V domains shown)
VH: EVQLVESGGGLVQPGKSLRLSCAASGFTLEDEAMHWVRQAPGKGLEWVSGINWNSEEIGYADSVKGRFTISRDNAKNSLYLQMNSLRTEDTALYYCAKVPGYSHGWIDAEDVWGQGTMVTVSS
VL: not shown
- Kd (hVISTA-ECD [7]): 4.1 nM
- Kd (hVISTA-ECD [11]): 8.2 µM

B10: P1-070870 (P1-068761_E56N) (antibody, V domains shown)
VH: EVQLVESGGGLVQPGKSLRLSCAASGFTLEDEAMHWVRQAPGKGLEWVSGINWNSENIGYADSVKGRFTISRDNAKNSLYLQMNSLRTEDTALYYCAKVPGYSHGWIDAEDVWGQGTMVTVSS
VL: not shown
- binding result (hVISTA-ECD [6]): no binding

B11: P1-068767 hIgG1f (antibody, V domains shown)
VH: EVQLVESGGGLVQPGKSLRLSCAASGFTLEDYAMHWVRQAPGKGLEWVSGIDWNSENIGYADSVKGRFTISRDNAKNSLYLQMNSLRTEDTALYYCAKVPGYSGGWIDAEDDWGQGTMVTVSS
VL: not shown
- Kd (hVISTA-ECD [7]): 8 nM
- Kd (hVISTA-ECD [11]): 22 µM

B12: P1-068775 (antibody, V domains shown)
VH: EVQLVESGGGLVQPGKSLRLSCAASGFTLEDEAMHWVRQAPGKGLEWVSGIDWNSEEIGYADSVKGRFTISRDNAKNSLYLQMNSLRTEDTALYYCAKVPGYSHGWIDAEDDWGQGTMVTVSS
VL: not shown
- binding result (hVISTA-ECD [13]): no binding

B13: P1-070900 (P1-068761_E56N_H100G) (antibody, V domains shown)
VH: EVQLVESGGGLVQPGKSLRLSCAASGFTLEDEAMHWVRQAPGKGLEWVSGINWNSENIGYADSVKGRFTISRDNAKNSLYLQMNSLRTEDTALYYCAKVPGYSGGWIDAEDVWGQGTMVTVSS
VL: not shown
- binding result (hVISTA-ECD [6]): no binding

B14: P1-068767 hIgG1f afucosylated (antibody, V domains shown)
VH: EVQLVESGGGLVQPGKSLRLSCAASGFTLEDYAMHWVRQAPGKGLEWVSGIDWNSENIGYADSVKGRFTISRDNAKNSLYLQMNSLRTEDTALYYCAKVPGYSGGWIDAEDDWGQGTMVTVSS
VL: not shown
- Kd (hVISTA-ECD [7]): 7.9 nM
- Kd (hVISTA-ECD [11]): 24 µM

B15: P1-068773 (antibody, V domains shown)
VH: EVQLVESGGGLVQPGKSLRLSCAASGFTLEDYAMHWVRQAPGKGLEWVSGIDWNSDNIGYADSVKGRFTISRDNAKNSLYLQMNSLRTEDTALYYCAKVPGYSGGWIDAEDDWGQGTMVTVSS
VL: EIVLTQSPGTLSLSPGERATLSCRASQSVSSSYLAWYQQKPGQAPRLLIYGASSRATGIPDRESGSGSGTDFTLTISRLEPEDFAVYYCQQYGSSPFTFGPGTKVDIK
- Kd (hVISTA-ECD [10]): 9.4 nM

B16: P1-070872 (P1-068761_H100G) (antibody, V domains shown)
VH: EVQLVESGGGLVQPGKSLRLSCAASGFTLEDEAMHWVRQAPGKGLEWVSGINWNSEEIGYADSVKGRFTISRDNAKNSLYLQMNSLRTEDTALYYCAKVPGYSGGWIDAEDVWGQGTMVTVSS
VL: not shown
- binding result (hVISTA-ECD [6]): no binding

B17: P1-070890 (P1-068761_E30D_E55A) (antibody, V domains shown)
VH: EVQLVESGGGLVQPGKSLRLSCAASGFTLDDEAMHWVRQAPGKGLEWVSGINWNSAEIGYADSVKGRFTISRDNAKNSLYLQMNSLRTEDTALYYCAKVPGYSHGWIDAEDVWGQGTMVTVSS
VL: not shown
- binding result (hVISTA-ECD [6]): no binding

B18: P1-068757 (antibody, V domains shown)
VH: EVQLVESGGGLVQPGKSLRLSCAASGFTLEDEAMHWVRQAPGKGLEWVSGINWNSEEIGYADSVKGRFTISRDNAKNSLYLQMNSLRTEDTALYYCAKVPGYSGGWIDAEDDWGQGTMVTVSS
VL: not shown
- binding result (hVISTA-ECD [14]): no binding

B19: P1-070922 (P1-068767_E30D_E55A) (antibody, V domains shown)
VH: EVQLVESGGGLVQPGKSLRLSCAASGFTLDDYAMHWVRQAPGKGLEWVSGIDWNSANIGYADSVKGRFTISRDNAKNSLYLQMNSLRTEDTALYYCAKVPGYSGGWIDAEDDWGQGTMVTVSS
VL: not shown
- binding result (hVISTA-ECD [6]): no binding

B20: P1-070904 (P1-068767_E30D) (antibody, V domains shown)
VH: EVQLVESGGGLVQPGKSLRLSCAASGFTLDDYAMHWVRQAPGKGLEWVSGIDWNSENIGYADSVKGRFTISRDNAKNSLYLQMNSLRTEDTALYYCAKVPGYSGGWIDAEDDWGQGTMVTVSS
VL: not shown
- binding result (hVISTA-ECD [6]): no binding

B21: P1-070864 (P1-068761_E30D) (antibody, V domains shown)
VH: EVQLVESGGGLVQPGKSLRLSCAASGFTLDDEAMHWVRQAPGKGLEWVSGINWNSEEIGYADSVKGRFTISRDNAKNSLYLQMNSLRTEDTALYYCAKVPGYSHGWIDAEDVWGQGTMVTVSS
VL: not shown
- binding result (hVISTA-ECD [6]): no binding

B22: P1-068748 (antibody, V domains shown)
VH: QVQLVESGGGVVQPGRSLRLSCAASGFTFSHHAMHWVRQAPGKGLEWVAIIWYDGSNDDYADSVKGRFTISRDNSKNTLYLQMNSLRAEDTAVYYCARDSGFYDSYYFDYWGQGTLVTVSS
VL: EIVLTQSPATLSLSPGERATLSCRASQSVSSSYLAWYQQKPGQAPRLLIYDASNRATGIPARFSGSGSGTDFTLTISSLEPEDFATYYCQQYNSYPYTFGQGTKLEIK
- binding result (hVISTA-ECD [15]): no binding

B23: P1-068742 (antibody, V domains shown)
VH: QVQLVESGGGVVQPGRSLRLSCAASGFTFSDYAMHWVRQAPGKGLEWVAIIWYDGSDKDYADSVKGRFTISRDNSKNTLYLQMNSLRAEDTAVYYCARDSGFYEDYYFDYWGQGTLVTVSS
VL: EIVLTQSPATLSLSPGERATLSCRASQSVSSSYLAWYQQKPGQAPRLLIYDASNRATGIPARFSGSGSGTDFTLTISSLEPEDFATYYCQQYNSYPYTFGQGTKLEIK
- koff (hVISTA-ECD [16]): > 0.01 s⁻¹

B24: P1-068746 (antibody, V domains shown)
VH: QVQLVESGGGVVQPGRSLRLSCAASGFTFSSYAMHWVRQAPGKGLEWVAIIWYDGSNHHYADSVKGRFTISRDNSKNTLYLQMNSLRAEDTAVYYCARDSGFYDSYYFDYWGQGTLVTVSS
VL: EIVLTQSPATLSLSPGERATLSCRASQSVSSSYLAWYQQKPGQAPRLLIYDASNRATGIPARFSGSGSGTDFTLTISSLEPEDFATYYCQQYNSYPYTFGQGTKLEIK
- koff (hVISTA-ECD [16]): > 0.01 s⁻¹

B25: P1-068744 (antibody, V domains shown)
VH: QVQLVESGGGVVQPGRSLRLSCAASGFTFSEYAMHWVRQAPGKGLEWVAHIWYDGSNKYEADSVKGRFTISRDNSKNTLYLQMNSLRAEDTAVYYCARDSGFYESYYFDEWGQGTLVTVSS
VL: EIVLTQSPATLSLSPGERATLSCRASQSVSSSYLAWYQQKPGQAPRLLIYDASNRATGIPARFSGSGSGTDFTLTISSLEPEDFATYYCQQYNSYPYTFGQGTKLEIK
- binding result (hVISTA-ECD [6]): no binding
